Reference: publication PMC2780292, “Structural Requirements for PACSIN/Syndapin Operation during Zebrafish Embryonic Notochord Development” (PLoS ONE, 2009)

Molecular target: the molecule itself
Experiment: crystal structure; selenomethionine SAD, 2.7 Å; crystals from 17% PEG 3350, 0.1 M disodium phosphate, hanging drop; two molecules in the asymmetric unit

B1: Drosophila Syndapin N-terminal EFC domain (domain or fragment, Drosophila melanogaster)
chain: SDSFWEPGNYKRTTKRIEDGYKLCNDLQQLIQERADIEKGYAKSLRTWSKKWGELIEKGPEYGTTEAAWKGVLTESERISDVHMKIKDNLCNDVNSQIKTWQKENYHHTLMQIKERKDLEDLFKKAQKPWAKLLAKVEKAKADYHSACKTERSATNQERNANADSSLSPDQVKKMHDRVQKTKDQVQKCREKYEQAIAEITKYNSVYIEDMTSVFEKCQTFEKTRLQFFKEILFNVHSCLDLTKVQSLPQIYEEFSHTINNADQQKDLKWWSNNHGINMAMNWPSFVEYT
modifications: selenomethionine-substituted
notes: the model holds residues 14-303 (chain A, 169-188 missing) and 14-298 (chain B); The fragment arose from full-length Syndapin during crystallization; Antiparallel homodimer; also called Syndapin EFC domain; Syndapin EFC dimer; source: crystals contained only the EFC domain
stoichiometry N: 2
